Experiments:
human CCR5 = target: T1, human CCR5 (human, UniProt P51681 1-352); test: told from CCR5 internalization on CD4+ and CD8+ T cells of human PBMC (FACS)
T1 construct: whole, on cells; also called CCR5 receptor
Procedure: (§1) RM and MR induced internalization of CCR5 on T cells is shown in FIGS. 7A and 7B, respectively. Human PBMC were incubated for 30 min at 37° C. with various concentrations of RM (FIG. 7A), MR (FIG. 7B) and RANTES and stained on ice for 1 h with a combination of directly conjugated antibodies against CCR5, CD8 and CD4. Mean channel fluorescence (MCF) of CCR5 was quantified on CD4 and CD8 positive T cells by FACS-analysis. Relative surface expression of CCR5 was calculated as [MCF(exp.)-MCF(negative control)]/[(MCF(medium)-MCF(negative control).
as §1, with “Human” for “RM and MR induced internalization of CCR5 on T cells is shown in FIGS. 7A and 7B, respectively. Human”, “RANTES. Cells were then” for “RANTES and”, “CD4 (CCR5-PE, Pharmingen, CD8-Cychrome, Immunotech and CD4-APC, Immunotech). CD4+ and CD8+ T cells were identified by expression of CD4 and CD8 as well as by their light scatter properties.” for “CD4.”

CD4 on human T cells [1] = target: T2, CD4 on human T cells (human, UniProt P01730 26-458); test: FACS on PBMC, 1 h on ice, detected with anti-6xHis or anti-RANTES (VL-1) antibody
T2 construct: whole, on cells
Procedure: (§2) PBMC were incubated for 1 h on ice with the constructs RM and MR in various concentrations. After washing with PBS, cell bound constructs were detected with an antibody against 6×His (Dianova) or an antibody against RANTES (VL-1) followed by incubation with PE-labelled rabbit-anti-mouse F(ab) fragments (Dako R439). Binding of RM and MR to CD4 on T cells was detected by FACS analysis (FIG. 6A).

CD4 on human T cells [2] = target: T2, CD4 on human T cells; test: FACS on PBMC
Procedure: as §2

T1 sequence (P51681 whole entry): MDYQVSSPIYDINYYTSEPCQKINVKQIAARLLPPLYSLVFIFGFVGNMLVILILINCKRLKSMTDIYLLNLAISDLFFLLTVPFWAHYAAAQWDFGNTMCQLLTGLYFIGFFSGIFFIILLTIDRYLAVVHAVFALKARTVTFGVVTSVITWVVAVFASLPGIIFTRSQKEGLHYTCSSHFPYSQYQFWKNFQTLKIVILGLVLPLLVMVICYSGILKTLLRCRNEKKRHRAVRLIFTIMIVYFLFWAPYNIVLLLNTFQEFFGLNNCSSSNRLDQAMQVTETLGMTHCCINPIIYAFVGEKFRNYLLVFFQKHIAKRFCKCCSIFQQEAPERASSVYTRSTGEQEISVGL

Binder	binding result (human CCR5)	binding result (CD4 on human T cells [1])	binding result (CD4 on human T cells [2])
MR construct ((VL) anti-CD4-linker-(VH) anti-CD4-linker-RANTES) (other, Expressed in the periplasm of E. coli and also in CHO cells; also called antiCD4-RANTES) DYKDDDDKDIVLTQSPASLAVSLGQRATISCKASQSVDYDGDSYMNWYQQKSGQPPKLLIYAASNLESGIPARFSGSGSGTDFTLNIHPVEEEDAATYYCQQSIQDPCTFGGGTELEIKGGGGSGGGGSGGGGSQVQLQQSGPELVKPGASVKMSCKASGYTFTDYVINWVKQRTGQGLEWIGEIYPGSGSDYYNENLKDKATLTADKSSNTAYMQLSSLTSEDSAVYFCARKGENGNSLAFAYWGQGTLVTVSAGGGGSGGGGSSPYSSDTTPCCFAYIARPLPRAHIKEYFYTSGKCSNPAVVFVTRKNRQVCANPEKKWVREYINSLQMSHHHHHH	binds	binds	–
RM construct (RANTES-linker-(VH) anti-CD4-linker-(VL) anti-CD4) (other, also called RANTES-antiCD4; RANTES-anti-CD4) SPYSSDTTPCCFAYIARPLPRAHIKEYFYTSGKCSNPAVVFVTRKNRQVCANPEKKWVREYINSLQMSSGGGGSGGGGSDIQLQQSGPELVKPGASVKMSCKASGYTFTDYVINWVKQRTGQGLEWIGEIYPGSGSDYYNENLKDKATLTADKSSNTAYMQLSSLTSEDSAVYFCARKGENGNSLAFAYWGQGTLVTVSAGGGGSGGGGSGGGGDIVLTQSPASLAVSLGQRATISCKASQSVDYDGDSYMNWYQQKSGQPPKLLIYAASNLESGIPARFSGSGSGTDFTLNIHPVEEEDAATYYCQQSIQDPCTFGGGTELEIKHHHHHH	binds	–	binds

— US20060078537A1 (published 2006)
